Assay [1] deals with T1, human CD131 R221A (human, UniProt P32927 17-897).
T1 construct: whole, on cells; also called R221 Ala substitution
T1 sequence (looked up): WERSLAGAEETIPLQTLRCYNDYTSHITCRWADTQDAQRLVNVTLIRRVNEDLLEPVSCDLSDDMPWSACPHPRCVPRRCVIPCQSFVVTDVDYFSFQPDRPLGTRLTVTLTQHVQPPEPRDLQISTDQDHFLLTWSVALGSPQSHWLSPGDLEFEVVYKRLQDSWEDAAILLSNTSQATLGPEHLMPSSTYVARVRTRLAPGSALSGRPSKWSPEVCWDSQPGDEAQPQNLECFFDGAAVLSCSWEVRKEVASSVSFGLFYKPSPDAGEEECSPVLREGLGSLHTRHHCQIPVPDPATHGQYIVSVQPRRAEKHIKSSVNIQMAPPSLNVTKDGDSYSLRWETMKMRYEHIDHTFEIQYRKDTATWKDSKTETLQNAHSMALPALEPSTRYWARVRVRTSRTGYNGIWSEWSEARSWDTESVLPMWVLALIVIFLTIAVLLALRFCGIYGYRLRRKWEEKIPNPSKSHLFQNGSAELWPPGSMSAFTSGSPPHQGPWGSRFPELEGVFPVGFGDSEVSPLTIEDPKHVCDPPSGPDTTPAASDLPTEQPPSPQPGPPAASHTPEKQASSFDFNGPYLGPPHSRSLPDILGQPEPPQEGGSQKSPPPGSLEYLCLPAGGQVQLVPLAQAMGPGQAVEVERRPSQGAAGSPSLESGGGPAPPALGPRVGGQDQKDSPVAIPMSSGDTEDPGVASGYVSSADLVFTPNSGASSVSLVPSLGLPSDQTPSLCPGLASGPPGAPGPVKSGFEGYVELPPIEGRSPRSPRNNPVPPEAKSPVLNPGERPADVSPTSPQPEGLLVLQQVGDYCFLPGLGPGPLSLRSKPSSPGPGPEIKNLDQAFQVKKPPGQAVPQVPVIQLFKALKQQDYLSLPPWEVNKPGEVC
In words: flow cytometry, Fab on HEK-293T cells expressing the mutant; labels of this column stand one row too low, mutant assigned after shifting them up (text: R221 is an epitope residue). For orientation: A flow cytometer gives signals particle by particle.

For assay [2], the target named is T2, human CD116 N156A (human, UniProt P15509 23-400).
T2 construct: whole, on cells
T2 sequence (looked up): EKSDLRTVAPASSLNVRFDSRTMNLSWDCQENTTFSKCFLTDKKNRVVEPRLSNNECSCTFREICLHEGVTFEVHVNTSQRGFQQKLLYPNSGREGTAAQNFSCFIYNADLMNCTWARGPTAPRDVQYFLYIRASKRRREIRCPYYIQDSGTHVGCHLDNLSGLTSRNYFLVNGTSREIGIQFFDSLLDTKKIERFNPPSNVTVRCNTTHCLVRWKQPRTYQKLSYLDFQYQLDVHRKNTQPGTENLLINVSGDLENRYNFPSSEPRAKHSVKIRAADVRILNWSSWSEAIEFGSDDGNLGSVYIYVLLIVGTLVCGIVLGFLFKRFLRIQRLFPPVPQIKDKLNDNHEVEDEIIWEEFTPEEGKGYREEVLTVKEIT
In words: flow cytometry, Fab 0.25 µg/mL on HEK-293T cells expressing the mutant.

For assay [3], the target named is T3, human CD116 D250A (human, UniProt P15509 23-400).
T3 construct: whole, on cells
T3 sequence (looked up): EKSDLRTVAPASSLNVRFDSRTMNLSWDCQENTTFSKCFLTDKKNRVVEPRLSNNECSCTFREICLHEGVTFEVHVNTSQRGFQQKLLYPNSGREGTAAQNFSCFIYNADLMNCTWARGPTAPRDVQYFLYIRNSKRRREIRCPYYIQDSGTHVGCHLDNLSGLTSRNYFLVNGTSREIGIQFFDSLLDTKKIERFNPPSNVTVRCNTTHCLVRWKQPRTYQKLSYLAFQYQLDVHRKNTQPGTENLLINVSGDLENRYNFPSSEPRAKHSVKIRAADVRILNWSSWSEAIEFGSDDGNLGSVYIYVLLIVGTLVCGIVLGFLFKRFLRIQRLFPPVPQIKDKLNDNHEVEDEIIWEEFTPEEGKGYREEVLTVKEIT
The description is as above.

Assay [4] concerns the target T4, human CD116 K158A (human, UniProt P15509 23-400).
T4 construct: whole, on cells
T4 sequence (looked up): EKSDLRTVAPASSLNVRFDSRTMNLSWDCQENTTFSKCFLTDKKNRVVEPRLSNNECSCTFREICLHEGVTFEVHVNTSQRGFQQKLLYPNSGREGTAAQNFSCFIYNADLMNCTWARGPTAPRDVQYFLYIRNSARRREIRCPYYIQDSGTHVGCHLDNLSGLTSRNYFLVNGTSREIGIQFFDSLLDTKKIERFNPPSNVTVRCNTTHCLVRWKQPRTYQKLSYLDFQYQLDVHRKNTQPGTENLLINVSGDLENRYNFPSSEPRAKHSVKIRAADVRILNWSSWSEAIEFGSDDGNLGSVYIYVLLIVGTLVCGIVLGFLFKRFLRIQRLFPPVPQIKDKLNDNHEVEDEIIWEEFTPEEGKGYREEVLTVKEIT
Described as above.

Assay [5] has as its target T5, human CD116 F251A (human, UniProt P15509 23-400).
T5 construct: whole, on cells
T5 sequence (looked up): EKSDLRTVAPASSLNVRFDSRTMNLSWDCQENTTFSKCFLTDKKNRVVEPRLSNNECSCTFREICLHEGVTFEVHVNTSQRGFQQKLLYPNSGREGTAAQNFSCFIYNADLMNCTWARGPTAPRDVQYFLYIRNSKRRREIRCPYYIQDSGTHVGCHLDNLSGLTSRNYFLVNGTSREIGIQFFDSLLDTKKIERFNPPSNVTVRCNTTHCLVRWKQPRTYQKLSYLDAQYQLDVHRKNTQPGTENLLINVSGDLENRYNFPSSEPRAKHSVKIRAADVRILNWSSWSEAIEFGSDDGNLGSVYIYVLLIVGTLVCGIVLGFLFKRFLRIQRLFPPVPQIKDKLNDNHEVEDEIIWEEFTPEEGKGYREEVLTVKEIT
The description is as above.

B1: anti-CD131 antibody 131-B2, Fab (Fab, V domains shown)
VH: QVQLVQSGAEVKEPGASVKISCKASGYTFTNDYMHWVRQAPGQGLEWMGIINPTGGGTSYAQKFRGRVTMTRDTSTSTVYMELSSLRSEDTAVFYCARERYYGSGTYFNIGLWYFDLWGRGTLVTVSS
VL: not shown
notes: Fab made from the antibody by an enzyme treatment
As to B1, in assay [1], the “Binding Reactivity (% WT)” value turned out to be 38 % WT.

B2: anti-CD116 antibody 116-408, Fab (Fab, V domains shown)
VH: EVQLVQSGAEVKKPGASVKVSCKVSGYTLTDLSMHWVRQAPGKGLEWMGGFDPEDGERIYAQKFQGRVTMTEDTSTDTAYMELSSLRSEDTAVYYCATGLFYYYYGMDVWGQGTMVTVSS
VL: not shown
Turning to B2, the “Binding Reactivity (% WT)” value in assay [2] amounted to 5.8 % WT; in assay [3] it was 95.8 % WT; in assay [4], 35.2 % WT; in assay [5], 99.3 % WT.

For the origin of these results see US20250092148A1 (Kyowa Kirin, published 2025).
